Measured values as given in the supplement of paper PMC9170038.

Test system: MS2 coat protein
Assay: apparent KD of MS2 coat protein; designed switch direction (-1 OFF switch, 1 ON switch): -1; higher = weaker reporter binding
Method in brief: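 Each step of the titration lasted 0.8–1.5 h at the lowest concentration and 10–20 min at the highest. The protein, SNAP-549-labelled MS2 coat protein, went from 0.7 or 1.5 nM doubling to 3 µM over RNA switches transcribed on Illumina chips by stalled E. coli RNA polymerase. Normalised cluster fluorescence was curve-fitted, and the per-design median over clusters is given as apparent KD.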

[1] = Eterna round: R95, input ligand: FMN 200 uM
[2] = Eterna round: R95, input ligand: microRNA oligo, concentration not stated
[3] = Eterna round: R95, input ligand: none
[4] = input ligand: microRNA oligo, concentration not stated

| Sequence | apparent KD of MS2 coat protein [1] [nM] | apparent KD of MS2 coat protein [2] [nM] | apparent KD of MS2 coat protein [3] [nM] | apparent KD of MS2 coat protein (input ligand: FMN 200 uM) [nM] | apparent KD of MS2 coat protein [4] [nM] | apparent KD of MS2 coat protein (input ligand: none) [nM] |
| --- | --- | --- | --- | --- | --- | --- |
| GAGGAGCAAGGAUAUACGAGGAUAGGGAAGUGAGGAGAGUGACAUGAGGAUCACCCAUGUAGAAGGUGCAAGGG [JR_Exclu2_Sub094] (puzzle: Exclusion 2) | 111 | 89.4 | 190 | – | – | – |
| UAUAAAACAUAGGAUAUCGAAAUUAUCAUUUAACGAGAAGGAUGAACAUGAGGAUCACCCAUGUGGUAUCAUGG [Mat - Exclusion 6 - JL Mod - D10] (puzzle: Exclusion 6) | 370 | 425 | 238 | – | – | – |
| UUAAUUAAUUUAUUAGAUCCUCACAUGAGGAUCACCCAUGUGCAGGAUAUCAGCUCGUGUAGAGCUGAGAAGGGCACUAUAAAU [ExNG3/10-B3] (Eterna round: R96, puzzle: Exclusion NG 3) | – | – | – | 29.8 | 61.5 | 116 |
| AAUUACAAGCAAAGAUCUUACAUGAGGAUCACCCAUGUGCUCGUUUUAUAAAGUACUAUCACGAAAGUGAUAGUACA [Mat - Sensor v3 - turn-off var 1 - Eli Mod - D95] (puzzle: Sensor v3, turn-off variant 1) | 29.9 | 90.9 | 26.3 | – | – | – |
| CAUAAUUUUCGGAAUAUGUACAUGAGGAUCACCCAUGUGACGAGUUACAUGAUUAACAAGCUUUUUGCUCGUCUUAU [Sensor v3 - Turn-off variant 1 - 12] (puzzle: Sensor v3, turn-off variant 1) | 118 | 31.9 | 207 | – | – | – |
| UAAUAAAGUGUGAGGAUAUGCUGGUCCUUAGAUCAGCAGAAGGCACAUGAGGAUCACCCAUGUAAUAUAUAAAU [Mat - Exclusion 4 - JL Mod - D56] (puzzle: Brourd's mod of Exclusion 4) | 245 | 22.8 | 30.3 | – | – | – |
| AAAAGUUAAGGAUAUACUUGAGGAUCACCCAAGUAGGUGGCUUCAGCCGGGAAACGGCGUAGAAGGUAGCAGAA [Atorin] (Eterna round: R97, puzzle: Exclusion 3) | – | – | – | 65.2 | – | 60.5 |
| UGGUCACAUGAGGAUCACCCAUGUCAGGAUAUCGUCACUGGAGCUUCGGCUCCAGUGACGAGAAGGGAUAUAAU [E1/9-A1] (Eterna round: R97, puzzle: Exclusion 1) | – | – | – | 191 | – | 57.8 |
| GCAGAAAGUGUAGGAUAUAGAAAUUAGCGGAAACGCAAUACAUGAGGAUCACCCAUGUUUCCUCACUAGAAGGGCAAAAGCUGC [EXNG2 V2 f] (Eterna round: R96, puzzle: Exclusion NG 2) | – | – | – | – | 12.8 | – |
| CCAUGGGAGCGAGGAUAUAGACCAUGGGAAGAGCUAGAAGGCGCUGACAUGAGGAUCACCCAUGUGUUCAUGAGGAGGUGGACA (Eterna round: R96, puzzle: Exclusion NG 1) | – | – | – | 215 | 88.7 | 113 |
| CGGAAAUCCUAGGAUAUGCUAGACGAAAGUCUAGCAGAAGGAGGAACAUGAGGAUCACCCAUGUGUCCUAUCCG [Mat - Exclusion 6 - Eli Mod - D16] (Eterna round: R97, puzzle: Exclusion 6) | – | – | – | 26 | – | 17.1 |
| AGAAGUAGUAGCCGAUCCUACAUGAGGAUCACCCAUGUAGCUAGACGUGCACGCGAUGCUCGUCAGACUACCAGAUG [salish99_TOv1_r3_031] (puzzle: Sensor v3, turn-off variant 1) | 131 | 120 | 155 | – | – | – |
| GAUGUGGGUUUUCAGAGUAACAUGAGGAUCACCCAUGUAGAAGUUGGAGGGAUCAAGCUUUUUGGUCGUCAUAUGUG [JR_SV3TOV1_Sub051] (Eterna round: R96, puzzle: Sensor v3, turn-off variant 1) | – | – | – | 603 | 358 | 588 |
| CAAAAGCUAGGAUAUACAUGAGGAUCACCCAUGUAUAGGUGGGCAGUUCUUAUCAAACGUAGAAGGAGCAUAAA [Uslaisan] (puzzle: Exclusion 3) | 39.2 | 17.5 | 16.6 | – | – | – |
| GAAAAGCAUGUGAGGAUAUGCACACCGGACCGGUGGUAGAAGGCACAUGAGGAUCACCCAUGUGACCAAGAAUA [BmEX4 A.4] (Eterna round: R97, puzzle: Brourd's mod of Exclusion 4) | – | – | – | 19.7 | – | 10.6 |
| UCGGUGUCAGGAUAUACAUGAGGAUCACCCAUGUAGAGAGAAGAUAGGGAAAGAGUAGGUAGAAGGGACGAGAG [JR_Exclu3_Sub045] (puzzle: Exclusion 3) | 43.7 | 29.1 | 41.7 | – | – | – |
| AUCAGCUCGUGAGGAUAUACAUGAUAGAUCGAUUAAUUAAUUAAUUUAACAUGAGGAUCACCCAUGUAGAAGGCACGAGCUGAU [ENG2/1-A3] (Eterna round: R96, puzzle: Exclusion NG 2) | – | – | – | – | 30 | – |

| Sequence | apparent KD of MS2 coat protein [1] [nM] | apparent KD of MS2 coat protein [2] [nM] | apparent KD of MS2 coat protein [3] [nM] | apparent KD of MS2 coat protein (input ligand: FMN 200 uM) [nM] | apparent KD of MS2 coat protein [4] [nM] | apparent KD of MS2 coat protein (input ligand: none) [nM] |
| --- | --- | --- | --- | --- | --- | --- |
| UUUAAUUUUUUUUUUUUACAAGCUUUUUGCUCGUCUUAUACAUGAGGAUCACCCAUGUAAGUGGAAGAUAAAUUAUC [JMF 10] (puzzle: Sensor v3, turn-off variant 2) | 18.2 | 21.4 | 16.5 | – | – | – |
| GAUUGACAUGAGGAUCACCCAUGUGAGGAUAUCGGCUGGACCGUGUUGGCUUGCUUUUCGAGAAGGCGCAUAGG [Exclusion 1 V49] (puzzle: Exclusion 1) | 55 | 36.8 | 35 | – | – | – |
| UAUCAUCAUGUAGGAUAUGCGUGGCAAAGCUAUGCAGAAGGACAUGAGGAUCACCCAUGUUCUAGCGUCUGAGUACAGAUGCUA [Mat - Exclusion NG 1 - Mod of JL - D75] (Eterna round: R96, puzzle: Exclusion NG 1) | – | – | – | 278 | 66.4 | 83.7 |
| GCUAACCGAGGAUAUACAUGAGGAUCACCCAUGUUCGAUAUCCUCAUUAGAACUACAUGUAGAAGGCGGUAAGC [Eternabot (Original) Solution 2] (Eterna round: R97, puzzle: Exclusion 3) | – | – | – | 15.2 | – | 13.8 |
| AGAAGUAGAAACCGAUCCUACAUGAGGAUCACCCAUGUAGCAAGACGUGCACGCGAAGCUCGUCAGACUACCAGAAA [salish99_TOv1_r3_005] (puzzle: Sensor v3, turn-off variant 1) | 159 | 223 | 337 | – | – | – |
| CUAAUAUAUCAGGAUAUGAUUUUAUGUGUUGGAUCAGAAGGGAUAACAUGAGGAUCACCCAUGUUGUGGAGUGA [JR_Ex6_Sub037] (Eterna round: R97, puzzle: Exclusion 6) | – | – | – | 271 | – | 112 |
| ACCAUUUACUAAUCCUCUAUACAUGAGGAUCACCCAUGUUCUGAGGAUAUCAUCGUUCGCCGCGUUGAGAAGGCAGAGCAUUCG [Ariestion] (Eterna round: R96, puzzle: Exclusion NG 3) | – | – | – | 157 | 22.4 | 24.8 |
| CAUCUGUGAGGAUAUGGUGAGUAGUGCCUGAGCGCUGCUCACCAGAAGGCACAUGAGGAUCACCCAUGUAUGAC [JL-ex4-2.01 denovo] (puzzle: Exclusion 4) | – | 43.7 | – | – | – | – |
| GUAUGUGACGAGGAUAUCACCUUGUUACUUAGAUGAGAAGGCGUCACAUGAGGAUCACCCAUGUGAUGAAAAGA [EX6 A.14] (Eterna round: R97, puzzle: Exclusion 6) | – | – | – | 27.4 | – | 21.4 |
| UAUCGGCGGACCGAGGCUUUUUGCUCGUCUUAUGCUAUGACAUGAGGAUCACCCAUGUGGUGGUGGUCCGUUGUAGU [JL ViennaUCT Bitein mod 10] (puzzle: Sensor v3, turn-off variant 2) | 64.5 | 12.6 | 48.1 | – | – | – |
| AGUAACUAUCACGAAAGUGAUAGUUACAACAAGUGAUAAACAUGAGGAUCACCCAUGUCCUCAUUUGCUCGUCUUAU [Sensor 3 - 9] (puzzle: Sensor v3, turn-off variant 2) | 256 | 283 | 326 | – | – | – |
| AGUUGGCGAGGAUAUACAUGAGGAUCACCCAUGUGAAAGAGAAGAGUGAGGAAGAAAAGUAGAAGGCGCUGACA [Mat - Exclusion 3 - Mod of Salish D39] (puzzle: Exclusion 3) | 135 | 69.3 | 75.2 | – | – | – |
| AAGUACCGUCACGAUAGUGAUGGUACAACAGGCAGUGAAACAUGAGGAUCACCCAUGUCCUCAAUUGCUCGUCUUAU [Sensor 3 - 77] (puzzle: Sensor v3, turn-off variant 2) | 77.6 | 192 | 98.7 | – | – | – |
| GUGGUACAUGAGGAUCACCCAUGUUAGGAUAUCGCGUGAGGUUUUACUUACACACACACGAGAAGGGACGUCUU (puzzle: Exclusion 1) | – | 43.2 | – | – | – | – |
| AAGAAACGAGGAUAUACAAUUAAGAGAGAGAAGGAAAUGAGACAUGAGGAUCACCCAUGUAGAAGGCGUAAGAA [JR_Exclu2_Sub082] (puzzle: Exclusion 2) | 27.6 | 31.1 | 26.5 | – | – | – |
| CAACCUCACAACCGUUAAAACAUGAGGAUCACCCAUGUGCCAUAACGGCGCAUGAUCGAGCUAGGCCCGUCCAUGCA [Razaxe] (Eterna round: R96, puzzle: Sensor v2, turn-off variant) | – | – | – | 23.2 | 18.8 | 26.1 |
